Measurements taken from patent publication US20220213201A1 (PHARMABCINE, published 2022).

What was measured:
[1] = biological target: T1, human TIE2-his (Sino Biological, 10700-H08H) (human, UniProt Q02763 23-745); assay: ELISA, purified IgG on coated hTIE2-his (1 µg/mL), HRP anti-human detection
T1 construct: Bought protein; also called hTIE2-his; hTIE2; not shown: his tag
Procedure: (§1) Whether or not the binding of TIE2 to the ScFv phage clone was maintained in IgG was determined through ELISA. 1 μg/ml of Ag (hTIE2-his: Sino Biological, 10700-H08H; mTIE2-his: Sino Biological, 51087-M08H) was plated at 100 μl/well onto a 96-well plate and incubated at 4° C. overnight. The next day, the cells grown the day before were centrifuged at 3,000 rpm for 10 minutes and stored at 4° C. The plated Ag was washed 3 times with 0.1% TBST and 200 μl of 2% BSA blocking buffer was added thereto, followed by incubation at 25° C. for 2 hours. After blocking was completed, the resulting product was washed 3 times with 0.1% TBST. […] After phage binding, the resulting product was washed 3 times with 0.1% TBST and 100 μl of HRP-conjugated goat anti-human Ab (1:3000, Sino, 11973-MM05) was added thereto, followed by incubation at 25° C. for 1 hour. After reaction, the resulting product was washed 3 times with 0.1% TBST, 100 μl of TMB (BD TMB substrate reagent set * 555214) was added thereto, color was developed for 3 to 5 minutes, 50 μl of a stop solution was added thereto, and then an assay was performed using an ELISA reader.

[2] = biological target: T2, mouse Tie2-his (Sino Biological, 51087-M08H) (mouse, UniProt Q02858 23-743); assay: ELISA, purified IgG on coated mTIE2-his (1 µg/mL), HRP anti-human detection
T2 construct: Bought protein; also called mTIE2-his; mTie2-his; not shown: his tag
T2 sequence (Q02858 23-743 limits assumed, stated change not applied): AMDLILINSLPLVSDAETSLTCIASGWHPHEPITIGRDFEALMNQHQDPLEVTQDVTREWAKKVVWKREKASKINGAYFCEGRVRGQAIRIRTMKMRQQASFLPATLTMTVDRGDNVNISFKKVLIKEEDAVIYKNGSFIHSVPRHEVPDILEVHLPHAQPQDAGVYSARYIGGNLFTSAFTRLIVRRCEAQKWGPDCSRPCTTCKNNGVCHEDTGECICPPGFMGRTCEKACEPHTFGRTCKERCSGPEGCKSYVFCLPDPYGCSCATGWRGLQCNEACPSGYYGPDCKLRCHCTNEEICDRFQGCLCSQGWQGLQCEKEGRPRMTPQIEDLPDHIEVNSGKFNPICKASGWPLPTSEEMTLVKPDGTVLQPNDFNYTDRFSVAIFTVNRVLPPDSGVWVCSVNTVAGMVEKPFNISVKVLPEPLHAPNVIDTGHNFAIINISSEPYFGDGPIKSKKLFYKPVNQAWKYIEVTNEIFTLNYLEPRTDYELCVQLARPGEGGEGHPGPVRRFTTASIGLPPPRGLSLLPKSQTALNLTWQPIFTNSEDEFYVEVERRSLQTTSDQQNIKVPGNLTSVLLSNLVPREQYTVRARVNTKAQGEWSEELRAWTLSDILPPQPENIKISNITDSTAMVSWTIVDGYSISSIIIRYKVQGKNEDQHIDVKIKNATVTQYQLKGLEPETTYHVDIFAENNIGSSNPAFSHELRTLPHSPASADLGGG
Procedure: as §1

[3] = biological target: T3, human TIE2 overexpressed on CHO-K1 cells (human, UniProt Q02763 23-1124); assay: flow cytometry on hTIE2/CHO-K1 cells, 2 µg/mL clone, PE anti-human IgG-Fc secondary
T3 construct: whole, on cells; also called hTIE2/CHO-K1; hTIE2 CHO-K1
T3 sequence (Q02763 23-1124): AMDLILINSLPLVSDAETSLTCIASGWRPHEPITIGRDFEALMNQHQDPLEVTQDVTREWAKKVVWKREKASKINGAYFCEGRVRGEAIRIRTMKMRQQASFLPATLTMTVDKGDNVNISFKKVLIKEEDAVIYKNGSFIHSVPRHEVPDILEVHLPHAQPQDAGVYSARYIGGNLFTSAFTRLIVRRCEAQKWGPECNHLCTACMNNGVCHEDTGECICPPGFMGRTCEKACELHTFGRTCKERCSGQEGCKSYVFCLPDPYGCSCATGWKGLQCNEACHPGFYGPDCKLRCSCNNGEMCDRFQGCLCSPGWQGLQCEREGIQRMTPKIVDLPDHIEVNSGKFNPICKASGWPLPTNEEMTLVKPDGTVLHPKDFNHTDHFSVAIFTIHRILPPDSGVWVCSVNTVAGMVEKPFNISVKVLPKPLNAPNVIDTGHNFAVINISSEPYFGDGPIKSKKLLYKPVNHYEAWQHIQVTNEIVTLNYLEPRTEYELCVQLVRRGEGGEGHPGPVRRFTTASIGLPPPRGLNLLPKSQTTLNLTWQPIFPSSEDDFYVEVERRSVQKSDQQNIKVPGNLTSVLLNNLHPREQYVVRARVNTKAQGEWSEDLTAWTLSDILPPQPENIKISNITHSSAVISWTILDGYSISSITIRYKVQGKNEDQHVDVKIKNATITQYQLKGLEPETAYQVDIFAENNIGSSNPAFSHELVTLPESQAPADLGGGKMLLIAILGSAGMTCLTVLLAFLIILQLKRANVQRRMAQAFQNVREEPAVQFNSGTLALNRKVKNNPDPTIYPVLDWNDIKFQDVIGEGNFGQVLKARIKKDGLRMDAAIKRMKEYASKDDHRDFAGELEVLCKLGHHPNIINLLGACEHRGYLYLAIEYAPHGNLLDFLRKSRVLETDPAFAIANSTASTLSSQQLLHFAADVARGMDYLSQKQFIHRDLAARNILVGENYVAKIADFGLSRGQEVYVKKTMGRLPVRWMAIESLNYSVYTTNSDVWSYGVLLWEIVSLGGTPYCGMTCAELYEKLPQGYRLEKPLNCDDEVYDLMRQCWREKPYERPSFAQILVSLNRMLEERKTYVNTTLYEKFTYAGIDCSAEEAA
Procedure: (§2) In order to determine the binding to cell-expressing TIE2, the binding to the self-established human/mouse TIE2 overexpressing CHO-K1 cell lines (hTIE2/CHO-K1, mTIE2/CHO-K1) was measured using flow cytometry. Each cell line was maintained and cultured, hTIE2 CHO-K1 was washed with PBS, 5 mM EDTA was added thereto to obtain a cell suspension, and each cell was recovered through centrifugation. A cell suspension of 5×10⁶ cells/mL was prepared using FACS-dedicated buffer (PBS containing 2% FBS, 0.05% sodium azide), and 100 μL of the cell suspension was dispensed into each tube. 100 μL of 2 μg/mL clones was added to each test tube and allowed to stand at 4° C. for 30 minutes to induce cell binding. The cells were washed with 2 mL of FACS buffer, 100 μL of a secondary antibody dilution (1/500, PE-conjugated anti-human IgG-Fc polyclonal antibody fragment, *A80-248PE, Bethyl Laboratories Inc. US) was added thereto, and the resulting mixture was allowed to stand at 4° C. for 20 minutes to perform fluorescent labeling. The cells were washed with 2 mL of FACS buffer and then suspended in 200 μL of FACS buffer. […]

[4] = biological target: T4, mouse TIE2 overexpressed on CHO-K1 cells (mouse, UniProt Q02858 23-1122); assay: flow cytometry on mTIE2/CHO-K1 cells, PE anti-human IgG-Fc secondary
T4 construct: whole, on cells; also called mTIE2/CHO-K1
T4 sequence (Q02858 23-1122): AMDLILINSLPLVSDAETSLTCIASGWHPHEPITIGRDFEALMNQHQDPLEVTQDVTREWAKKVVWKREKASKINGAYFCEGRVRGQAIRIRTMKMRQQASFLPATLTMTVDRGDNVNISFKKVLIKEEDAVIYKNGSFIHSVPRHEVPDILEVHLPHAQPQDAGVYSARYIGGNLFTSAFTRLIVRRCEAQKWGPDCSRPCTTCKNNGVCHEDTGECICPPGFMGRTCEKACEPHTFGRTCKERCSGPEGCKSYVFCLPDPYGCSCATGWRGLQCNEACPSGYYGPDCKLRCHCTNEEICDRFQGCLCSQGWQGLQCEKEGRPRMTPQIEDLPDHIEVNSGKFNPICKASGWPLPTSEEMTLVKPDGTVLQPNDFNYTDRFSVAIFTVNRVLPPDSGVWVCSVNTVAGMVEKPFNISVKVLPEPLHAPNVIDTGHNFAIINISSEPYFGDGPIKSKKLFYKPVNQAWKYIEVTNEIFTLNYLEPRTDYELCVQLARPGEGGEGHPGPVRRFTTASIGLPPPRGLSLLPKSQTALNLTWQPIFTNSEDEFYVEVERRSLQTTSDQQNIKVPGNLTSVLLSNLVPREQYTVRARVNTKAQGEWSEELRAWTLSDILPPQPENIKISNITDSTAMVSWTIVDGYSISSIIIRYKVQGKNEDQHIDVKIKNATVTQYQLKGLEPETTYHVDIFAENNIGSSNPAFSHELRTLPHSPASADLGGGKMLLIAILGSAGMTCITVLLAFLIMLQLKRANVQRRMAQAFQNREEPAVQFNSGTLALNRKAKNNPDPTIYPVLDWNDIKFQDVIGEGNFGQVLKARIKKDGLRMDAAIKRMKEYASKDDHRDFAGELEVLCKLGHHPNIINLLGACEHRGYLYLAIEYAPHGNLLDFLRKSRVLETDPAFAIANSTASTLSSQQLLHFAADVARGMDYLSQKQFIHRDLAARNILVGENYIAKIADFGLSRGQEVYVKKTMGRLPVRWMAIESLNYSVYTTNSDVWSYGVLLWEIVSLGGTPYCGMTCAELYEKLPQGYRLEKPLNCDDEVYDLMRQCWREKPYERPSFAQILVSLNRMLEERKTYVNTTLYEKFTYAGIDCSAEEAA
Procedure: as §2

[5] = biological target: T1, human TIE2-his (Sino Biological, …); assay: Octet (BLI), antibody fixed on the biosensor, hTIE2-his in solution
Procedure: (§3) The anti-TIE2 antibody was fixed at the biosensor and tested according to the manufacturer's manual. The binding kinetics at each concentration of human TIE2 and mouse Tie2 were measured to calculate the binding rate constant (kₒₙ), dissociation rate constant (koff), and binding constant (KD) (Table 4).

[6] = biological target: T2, mouse Tie2-his (Sino Biological, …); assay: ELISA, scFv phage on mouse TIE2 antigen, HRP anti-M13 detection
[7] = biological target: T1, human TIE2-his (Sino Biological, …); assay: ELISA, scFv phage on coated hTIE2-his, HRP anti-M13 detection
[8] = biological target: T2, mouse Tie2-his (Sino Biological, …); assay: Octet (BLI), antibody fixed on the biosensor, mTie2-His in solution
Procedure: as §3

T1 sequence (Q02763 23-745 limits assumed): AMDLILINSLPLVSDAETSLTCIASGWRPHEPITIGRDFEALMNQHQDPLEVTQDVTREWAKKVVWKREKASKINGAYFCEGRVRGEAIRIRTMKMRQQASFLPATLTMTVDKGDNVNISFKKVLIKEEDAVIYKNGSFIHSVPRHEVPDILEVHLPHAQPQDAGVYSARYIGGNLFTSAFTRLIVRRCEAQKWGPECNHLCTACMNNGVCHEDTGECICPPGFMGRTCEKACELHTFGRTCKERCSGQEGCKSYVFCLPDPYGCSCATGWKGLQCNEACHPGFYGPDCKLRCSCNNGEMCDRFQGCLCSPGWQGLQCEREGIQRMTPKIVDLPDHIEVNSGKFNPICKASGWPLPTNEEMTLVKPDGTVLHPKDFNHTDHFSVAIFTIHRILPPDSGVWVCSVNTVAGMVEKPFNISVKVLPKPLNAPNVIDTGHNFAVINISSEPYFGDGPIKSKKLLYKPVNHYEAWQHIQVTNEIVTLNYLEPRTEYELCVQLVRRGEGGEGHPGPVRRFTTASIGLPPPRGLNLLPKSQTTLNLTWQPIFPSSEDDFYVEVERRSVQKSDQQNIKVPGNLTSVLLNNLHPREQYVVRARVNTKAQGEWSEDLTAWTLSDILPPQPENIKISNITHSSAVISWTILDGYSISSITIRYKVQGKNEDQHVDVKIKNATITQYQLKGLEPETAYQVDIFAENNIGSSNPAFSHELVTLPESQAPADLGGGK

B1: anti-TIE2 antibody 1A9 (IgG) (antibody, V domains shown)
VH: QMQLVQSEAEVKKPGASVKVSCKASGYTFNSYDIHWVRQAPGQGLEWMGVVNPPGGTGSTVYAQKFEDRLTLTTDMSTSTAYMELSSLRSEDTAVYYCARDYNRAPPTLDVWGQGTTITVSS
VL: NFMLTQPASVSGSPGQSITISCTGSSSDVGGYNYVSWYQQHPGKAPQLIIYDVTKRPSGVSNRFSGSKSGNSASLTISGLQAEDEADYYCSSYSSSTFYVFGTGTKVTVLG
notes: also called 1A9 clone
binding result [1]: binds
binding result [2]: no binding
binding result [3]: binds

B2: anti-TIE2 antibody 3D6 (IgG) (antibody, V domains shown)
VH: QVQLVESGGGLVQPGGSLRLSCIGSGFTFSRYNINWVRQAPGKGLEWVSSISSSGRFIHYAGSVKGRFTVSRDNTKNSVSLQMNSLRAEDTAVYYCARDSPTQGPYYYYGMDVWGQGTTITVSS
VL: SYELTQPPSESVAPGKTATITCGGNKIGSKSVHWYQQKPGQAPLMVIYYDSDRPSGIPERFSGSNSGNTATLTISRVEVGDEADYYCQVWDSSSDRPVFGGGTKLTVLG
notes: also called 3D6 clone
binding result [1]: binds
binding result [2]: no binding
binding result [3]: binds
binding result [4]: no binding

B3: anti-TIE2 antibody 2F2 (IgG) (antibody, V domains shown)
VH: QVQLVESGGGLVQPGGSLRLSCAASGFTFSSYAMTWVRQAPGKGLEWVSRISGSGGSTNYADSVKGRFTISRDNSKNTLYLQMNSLRAEDTAVYYCARGGLHHGFDIWGQGTMVTVSS
VL: SYELTQPPSLSVAPGKTARITCDGDNIESKSVHWYQQKPGQAPVLVIYYDNDRPSGIPERFSGSNSGNTATLTISRVEAGDEADYYCQVWDTYTDQPVFGGGTKLTVLG
notes: also called 2F2 clone
Kd [5]: 0.794 nM
koff [5]: 0.000116 s⁻¹
kon [5]: 146000 M⁻¹ s⁻¹
binding result [2]: no binding
binding result [4]: no binding

B4: 4E2 monoclonal scFv phage (scFv)
chain: QVQLVQSGGGLIQPGGSLRLSCAASGFTFSDYAMHWVRQAPGKGLEWVALISFDGNNQYYADSVKGRFTISRDNSKNTIYLQMNSLRAEDTAVYYCTTDTMSGYDWEDAFDIWGQGTMITVSSDIQMTQSPSSLSASIGDRVTITCRASQSIGRWLAWYQQKPGKAPKLLIYAASSLQSGVPSRFSGSGSGTDFTLTISSLQPEDFATYYCQQSYSTPYTFGQGTKVEIKR
Mouse ELISA [6]: 0.4
Human ELISA [7]: 1.2

B5: anti-TIE2 antibody 11F (IgG) (antibody, V domains shown)
VH: QVQLVESGGGVVQPGRSLRLSCSASGFSFSDHAMHWVRQAPGRGLEWVATVWPDGSNKYYVDSVNGRFSISRDNSKNTVSLQMNSLRAEDTAVYYCARDSGPISRGDLTYWGPGVLVTVSS
VL: NFMLTQPHSVSESPGKTVIISCTGSGGSIASNYVQWYQQRPGSAPTIVIYEDDQRPSGVPDRYSGSTDSSSNSASLTISGLRAEDEADYYCQSYDDTNVVFGGGTKLTVLG
notes: also called 11F antibody; No. 6
Kd [5]: 2.76 nM
koff [5]: 0.000152 s⁻¹
kon [5]: 55300 M⁻¹ s⁻¹

B6: 1A9 monoclonal scFv phage (scFv)
chain: QMQLVQSEAEVKKPGASVKVSCKASGYTFNSYDIHWVRQAPGQGLEWMGVVNPPGGTGSTVYAQKFEDRLTLTTDMSTSTAYMELSSLRSEDTAVYYCARDYNRAPPTLDVWGQGTTITVSSNFMLTQPASVSGSPGQSITISCTGSSSDVGGYNYVSWYQQHPGKAPQLIIYDVTKRPSGVSNRFSGSKSGNSASLTISGLQAEDEADYYCSSYSSSTFYVFGTGTKVTVLG
Mouse ELISA [6]: 0
Human ELISA [7]: 2.4

B7: anti-TIE2 antibody 4E2 (IgG) (antibody, V domains shown)
VH: QVQLVQSGGGLIQPGGSLRLSCAASGFTFSDYAMHWVRQAPGKGLEWVALISFDGNNQYYADSVKGRFTISRDNSKNTIYLQMNSLRAEDTAVYYCTTDTMSGYDWEDAFDIWGQGTMITVSS
VL: DIQMTQSPSSLSASIGDRVTITCRASQSIGRWLAWYQQKPGKAPKLLIYAASSLQSGVPSRFSGSGSGTDFTLTISSLQPEDFATYYCQQSYSTPYTFGQGTKVEIKR
notes: also called 4E2 clone
Kd [5]: < 0.001 nM
koff [5]: < 1e-07 s⁻¹
kon [5]: 106000 M⁻¹ s⁻¹
Kd [8]: 13.8 nM
koff [8]: 0.00291 s⁻¹
kon [8]: 212000 M⁻¹ s⁻¹

B8: 2F2 monoclonal scFv phage (scFv)
chain: QVQLVESGGGLVQPGGSLRLSCAASGFTFSSYAMTWVRQAPGKGLEWVSRISGSGGSTNYADSVKGRFTISRDNSKNTLYLQMNSLRAEDTAVYYCARGGLHHGFDIWGQGTMVTVSSSYELTQPPSLSVAPGKTARITCDGDNIESKSVHWYQQKPGQAPVLVIYYDNDRPSGIPERFSGSNSGNTATLTISRVEAGDEADYYCQVWDTYTDQPVFGGGTKLTVLG
Mouse ELISA [6]: 0.1
Human ELISA [7]: 1.9

B9: 3D6 monoclonal scFv phage (scFv)
chain: QVQLVESGGGLVQPGGSLRLSCIGSGFTFSRYNINWVRQAPGKGLEWVSSISSSGRFIHYAGSVKGRFTVSRDNTKNSVSLQMNSLRAEDTAVYYCARDSPTQGPYYYYGMDVWGQGTTITVSSSYELTQPPSESVAPGKTATITCGGNKIGSKSVHWYQQKPGQAPLMVIYYDSDRPSGIPERFSGSNSGNTATLTISRVEVGDEADYYCQVWDSSSDRPVFGGGTKLTVLG
Mouse ELISA [6]: 0.1
Human ELISA [7]: 2.1
